Data: a protein production outcome set (Wang et al. 2014)

Test: label from the status in PepcDB records
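Further: failed if final PepcDB status was selected cloned or expressed and not failed if soluble or beyond.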

## MARDGGVSCLRRSEMMSVGGIGGIESAPLDLDEVHVLAVDDSLVDRIVIERLLRITSCKVTAVDSGWRALEFLGLDNEKASAEFDRLKVDLIITDYCMPGMTGYELLKKIKESSNFREVPVVIMSSENVLTRIDRCLEEGAQDFLLKPVKLADVKRLRSHLTKDVKLSNGNKRKLPEDSSSVNSSLPPPSPPLTISPESSPPLTVSTESSDSSPPLSPVEIFSTSPLSSPIDDEDDDVLTSSSEESPIRRQKMRSPGLD
  protein production: failed

## MKCKRLNEVIELLQPAWQKEPDFNLLQFLQKLAKESGFDGELADLTDDILIYHLKMRDSAKDAVIPGLQKDYEEDFKTALLRARGVIKELEHHHHHH
  protein production: not failed

## MAQKILVEQVVKRKAIVVQPKDTVDRVAKILSRNKAGSAVVMEGDEILGVVTERDILDKVVAKGKNPKEVKVEEIMTKNPVKIEYDYDIEDVIELMTEKGVRRVLVTKFGKPIGFVTAADILAALASHNHEEEEEEREEESEVYGICEVCGQYGALYKVYHEGRELWVCETCKDLIEGR
  protein production: not failed

## MITSIARQSIILKCLRQKSVLVSNYELYYTAGLAKKCFGIAVDADMEPKQLLEELQKHIDKVSPADEQEKYLIHLLGNYEPDDTHDEQTVELFHMGETEEHIWQVSIT
  protein production: not failed

## QMNTVFIKNEGVTEGEIATIGEHTAEISGVSTGTDWTRDYSQSGALRSLLGTVSTEKQGLPAEEVDEYLKKGYARNDRVGTSYLEKQYEDVLQGKKAKSEVVLDNNGKIVSQTPISKGEKGSNLKLTID
  protein production: failed

## MIAAYENSKWEPVKWENDMHCAVKIQDKNQWRRGQIIRMVTDTLVEVLLYDVGVELVVNVDCLRKLEENLKTMGRLSL
  protein production: not failed

## MFKGTNNASDFTLMSFSDRQAKNHEPRLKARRRGCLIVLADRIIDALYHPAGPCQGADKARQSAIQHFRLDVPEGQCHRLRHLLDMRPAMTQTQPAPACSLPCSILLLAGGRGSRMGGQDKGLVAWRGQPLIAHVQAVVRPLSDDLIISCNRNAERYRAYADRLVEDGQKDFPGPLAGVLAGLATARHPWLLVLACDAPQIDAALIQALLDARGNDTRPVMVQQAGQWQPMFSLIPTALLGDLRQAWDNGERSLLRALAAHGLRPLPCAADDPRLSNFNTPELLSEAGPKPLA
  protein production: failed

## IKERVKMEVIGLEIPLISGNEDYTLAELISTYPLEDKDVIVIAETVVSKIEKNVILKNEITPSNEAMELSKKLGKEPEVVQVILDESNEIVKLGPNFIITETKHGFVCANSGVDESNTSKGIKPLPKNPDKSAEEIRMGIEKITGKKVGVIINDSMGRPFRKGSCGIAIGVSGVCGLWDRKGEKDLFGRELKTTEVGIADELAATASAVMGQSNEGIPLVIIRNAPVPFTNGTGKELIRKKEEDVFR
  protein production: failed

## LFYDSEQDKEQSNPYMVLDIDKLFHVRPVTQTDVYRADAKEIPRIFQILYANEGESKKEQEFPVEPVGEKSNYICHKGHEFIPTLYHFPTNCEACMKPLWHMFKPPPALECRRCHIKCHKDHMDKKEEIIAPCKVYYDISTAKNLLLLANSTEEQQKWVSRLV
  protein production: failed

## MVCVDFIDQKVYSEAEGLFVSDLDLGIKGLIRARYPFALDSDFISYGNLSHYCMNYLDEIVQRANQKNEKIKYNVTTLMKEEEKPFNVEERLNKQATIGQRIADDVARFGGSWTFIIVFVSIMAIWMLVNIMKPFGIQFDPYPFILLNLALSTIAAIQAPLIMMSQNRAADYDRLQARNDFNVNKTSELEIRLLHEKIDHMVQQDQFELLEIQKLQTEMLVSLGNQLAQLKQLQK
  protein production: failed

## MNETEFYAYHIVTRKKMHIGQMIPFNKNQHNTLYHFFFEREQLNANGEDGIQILNNHYKNDELHINNENAKVVISYMDQTIRAARETIVEMVRLQEFPEYPSRLSCLYAAKSYEDALKWKALFDSYNREVLQIVKLRVIGSSFEGDGNLLPKEDGIPFSQKIEQARKYWKGNIRNELPELLINGEIEVVEIIDDFSSIHI
  protein production: not failed

## SPGSAAKGSELSERIESFVETLKRGGGPRSSEEMARETLGLLRQIITDHRWSNAGELMELIRREGRRMTAAQPSETTVGNMVRRVLKIIREEYGRLHGRTDESDQQESLHKLLTSGGLNEDFSFHYAQLQSNIIEAINELLVELEGTMENIAAQALEHIHSNEVIMTIGFSRTVEAFLKEAARKRKFHVIVAECAPFCQGHEMAVNLSKAGIETTVMTDAAIFAVMSRVNKVIIGTKTILANGALRAVTGTHTLALAAKHHSTPLIVCAPMFKLSPQFPNEEDSFHKFVAPEEVLPFTEGDILEKVSVHCPVFDYVPPELITLFISNIGGNAPSYIYRLMSELYHPDDHVL
  protein production: failed

## HVQLSLPVLQVRDVLVRGFGDSVEEALSEAREHLKNGTCGLVELEKGVLPQLEQPYVFIKRSDALSTNHGHKVVELVAEMDGIQYGRSGITLGVLVPHVGETPIAYRNVLLRKNG
  protein production: not failed

## MQIRVYDEGAVQDCLFVLGWGNRCRHRTVQWLIDQLTTAYRVHAVELPTHITDYRREWVGPVQEYAADLGRFDLLGHSAGGLTAAHLDADGIGNRVYLSPWWDSDFPVPGPVLDAIASLPITKPFIPIDTLDADAIGDLATAQQLAEAPSSVSPAFLRTVFRAQRSLPPARDTAAAFCSLTDTVVDPRAVGERLPADRIRLYDGGHELFSSSGREDTAETVIDTLQHGPDAL
  protein production: failed

## EMTDLQSTHKNFLFEIEEVGIKNLTYPVLIDQYQTAGLFSFSTSLNKNEKGINMSRILESVEKHYDNGIELEFNTLHQLLRTLQDKMNQNAAGVDVSGKWFFDRYSPVTNIKAVGHADVTYGLAIENHTVTRKELTIQAKVTTLCPCSKEISEYSAHNQRGIVTVKAYLDKNNDVIDDYKDKILDAMEANASSILYPILKRPDEKRVTERAYENPRFVEDLIRLIAADLVEFDWIEGFDIECRNEESIHQHDAFARLKYRK
  protein production: not failed

## MSDHRPAARPWANRRRTIMSTTTLPGSTVATLTVTTPSDREVQITRIFDASRPMVFDCWTIPELLKGWLHGPDGWRLAICEIDLRVGGATRYVWQHRDGRSMGMSGAYREIVRPARIVATELFDEDWTGGETVGTVVFTEQAGKTLLTQTVLYASQAARDGALGTGMTRGMGESYAQLDAYLISLQDAAKGAA
  protein production: failed

## MAEAANKNKPHKLIIDNRNSMSMTGVTKVISIDTDLVLLVTEQGKLKITGKNMQASTLDLDKGILELTGNFNTMVYSGEKEGALSLKSLFK
  protein production: failed

## MKRIIILSPFRGLFRSLLYFLLGLIMALISAGYFSQLFSIVGINRDIAIIISITISFLSLFSSPFNLVLTEVKKEAIAIEEDVVFFFGFPIFIPRISRQNMNTLIAVNLGGALIPLGVSLFLMYELQAYIVYFIINIIVVIIVSKLFSRVIRGVGVIMHPIIPSIFSVISSYVLFYKLHILIPLSAYIGSVLGTLIGADLLNLRRIINEARPQVISIGGMGTFDGIFVSGIISVFISELLVII
  protein production: failed

## MAERTLVKPCTSVPPTMVRVPNVTRADALAAARNPLALIAERWTPAPRTVRRAALAALVMAVVIVVTGGAVRLTGSGLGCPTWPKCTDDSLTTTSAMGFHGVIEFGNRMLTYVLCAAVGWAIIAARSQKPWRRSLTRLGWAQFWIVMSNAILGGIVVLVGLNPYTVAAHFLLSTALIAVATLMWQRACEGDGAPRPLVGKAVQQLVWFLVTASVLLIAVGTVVTGAGPHAGDSSDVERMPLDWETVSKLHAVLAWIVVTLTFALWFVLKAVDAPKGPLHRTRDLFLILLAQGVIGYVQYFTDLPEALVALHMLGSCLVWIGVLRVLLSLRERPEAVADLPGPSTESALTRA
  protein production: failed

## MMLNRKDADYYLGKEIMLARIRRGALIPAKVNEEHFWLLIGISSIHSEKIIQALRDYLVFGVSRKDVCERYEVNNGYFSTSLNRLSRISQAAAQMVVYYSLEHHHHHH
  protein production: not failed

## MLIQDLSHKNIKDYTSIYGEEYINRIVEKAEKLRDITLTHVNSTSLGGGVAEILYSLVPLMNSIGITTRWEVIKGGNEFFNVTKKIHNALQGAEIDLSDEEKRIYLENNKWNVENELVLDSTHIVVHDPQPLPIRKFAENNKKWIWRCHIDLSTPYKPVWLFISQLLRGYEASIFHLKEYIHPETPTPIKYVMPPSIDPLSDKNKELSWSTIEKILNRYGIDPEKPILLQVARFDPWKDPFAAIDVYRLVKKEFPDTQLLLVTSMATDDPEGWIYYEKTLKYAGMDEDIFILTNLKNVGTLEVNAFQRAATVVLQMSRREGFGLAVTEALWKRKPVVARPRGGIKLQVIDGVTGHLAETVEEAAKKTIYLIKNPQKRKELGENGYKHVLKHFTIVRHIENYLDLLAKIV
  protein production: failed

## MESFHPLSLLKPSIRGWCIRGRVVRTFLVSLVPSSKVMGLILAEEHGMTIEATVGYKMSDHYKDFINEGEWVTITNFGVVENSGSVRATTHSFKIGFFVDIVVRLTSPLPAIPHYRLASFSSIIDDEIDKSVLVDLVGAIYDVGELINTRPKQNNVDDLTLIFKISDNENRVLECLATKKEALDFDHNYRRYGGGVIVAVLGWWKIDRYFDGPKNVRVCTAGTISTVFPDPDIPESNEIHEI
  protein production: failed

## MNVRNNTKLITINALLLAIGVILHQITPILGLPMQPDFALTMLFIIIILNDNFKITMVSGTLMGIFTAMTTKFPGGQLPNVVDKIFTALIVFLFIALIKKSNILGRLSVEKRNNILIAIVLPLGTLVSGILFLGTAKIIVGLPASFSILFLTVVVPSIALNTVIGLVLYRIVEKSLRRASYSIRG
  protein production: failed

## MREEELNTEKVVAAIANPVENEVRKVWEDVVEKIEQRVAVIEQASHKLLQNKVSEEILSKAKVEAHKLAGSLGMFGSDEGSQIAQEIESLLDNGKKLKASGGKHLGQVVELEHHHHHH
  protein production: failed

## MDCYLNAANSFARILDEYQTYNSLVVAFDFDDTVYDFHKKGRLYADVVTLLRDLKKINCHLICWTGQEDLTFVKNYLMENNIPFDDINENPPFHVSSSKKVYANVYLDDRAGLKQVFGELTQLLQHESIRIKSV
  protein production: failed

## MTERKVSWLELFFDLIFVTAVASTTHLLLSVDNHPDKTAAYFGEYLLMVTPMFWAWVGQTMFFNRFGEKIKWPELYMLSQMFFLILMTASFDLTFSNTYYTFLIGYLGIRFITVIQYFVISKQLTGNAQKVALLLGSVFLLGVLTTATSVFFEGFARYLVMYLGIAVDIILPLFLAKTLRKVPVDFPHLAERFGLFVIITFGESIVAITTILVGHTLDLYTICYTLLGFLIICTLWASYFYSFEKIVDHHKVTHGQFLIYGHFFIIVSVMLLAVNLHLLFEGHLQRDVLLLLLFSSVAVFFISKQFVFAAHKKAEVSFSFWKDALLLLLLVGLFFVNLYINLPLFVSFVSIWICALVDLGLQFGTSRSVRM
  protein production: failed

## MGNCCGTAGSLAQNDNKPKKGRKKQNPFSIDYGLHHGGGDGGGRPLKLIVLNDPTGREIESKYTLGRELGRGEFGVTYLCTDKETDDVFACKSILKKKLRTAVDIEDVRREVEIMRHMPEHPNVVTLKETYEDEHAVHLVMELCEGGELFDRIVARGHYTERAAAAVTKTIMEVVQVCHKHGVMHRDLKPENFLFGNKKETAPLKAIDFGLSVFFKPGERFNEIVGSPYYMAPEVLKRNYGPEVDIWSAGVILYILLCGVPPFWAETEQGVAQAIIRSVLDFRRDPWPKVSENAKDLIRKMLDPDQKRRLTAQQVLDHPWLQNAKTAPNVSLGETVRARLKQFTVMNKLKKRALRVIAEHLSDEEASGIREGFQIMDTSQRGKINIDELKIGLQKLGHAIPQDDLQILMDAGDIDRDGYLDCDEFIAISVHLRKMGNDEHLKKAFAFFDQNNNGYIEIEELREALSDELGTSEEVVDAIIRDVDTDKDGRISYEEFVTMMKTGTDWRKASRQYSRERFNSISLKLMQDASLQSCVFDILANERAEYGDQERKTVLAFGCV
  protein production: failed
